T1: BCMA on BCMA-positive NCI-H929, ARP-1 and U266B1 cells (human, UniProt Q02223 1-184)
T1 construct: they are human cell lines; also called B-cell maturation antigen; TNFRSF17
T1 sequence: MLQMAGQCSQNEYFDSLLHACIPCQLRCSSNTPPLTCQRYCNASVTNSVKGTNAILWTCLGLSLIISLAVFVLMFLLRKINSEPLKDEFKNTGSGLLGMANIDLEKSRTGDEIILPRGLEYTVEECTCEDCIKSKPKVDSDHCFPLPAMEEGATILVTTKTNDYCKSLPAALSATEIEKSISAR

T2: human BCMA-Fc (human, UniProt Q02223 5-51, limits assumed)
T2 construct: Bought from R&D Systems; also called huBCMA-Fc; BCMA-Fc (R&D Systems)
T2 chain (looked up): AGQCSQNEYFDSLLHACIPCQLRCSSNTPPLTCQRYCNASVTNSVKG


How the values were obtained:
[1] = target: T1, BCMA on BCMA-positive NCI-H929, ARP-1 …; assay: FACS, NCI-H929 cells
Description: (§1) Variants for which sufficient protein was purified in secondary screening were tested in a fluorescence-activated cell sorting (FACS) cell-binding assay. […] 6-12 point dilutions of anti-BCMA variants starting from concentrations of about 100-200 nM antibody were dispensed into each well using a BioMekFX (Beckman Coulter). Cells were then incubated on ice for 1 hr, washed with FACS buffer and incubated for 1 hr on ice with […] FACS buffer containing […] Alexa647-conjugated Goat Anti-Human IgG dispensed using BioMekFX (Beckman Coulter). Cells were then washed 2× with FACS buffer and fixed for 10 minutes in […] PBS with 2% PFA prior to fluorescence detection. Samples were acquired using a Beckton Dickinson LSRII FACS. Geometric Mean Fluorescence Intensity of BCMA antibody binding was analyzed using FlowJo® software (Trec Star, Inc.).

[2] = target: T1, BCMA on BCMA-positive NCI-H929, ARP-1 …; assay: cell-based or functional assay
[3] = target: T3, rat BCMA on 293T-ratBCMA cells (rat); assay: FACS, 293T-ratBCMA cells
T3 construct: whole, on cells

[4] = target: cynomolgus BCMA on 293T-cynoBCMA cells (cynomolgus, UniProt Q02223 1-184 (human entry)); assay: FACS, 293T-cynoBCMA cells
Chain of cynomolgus BCMA on 293T-cynoBCMA cells (Q02223 other isoform, or with tags, fused parts or gaps): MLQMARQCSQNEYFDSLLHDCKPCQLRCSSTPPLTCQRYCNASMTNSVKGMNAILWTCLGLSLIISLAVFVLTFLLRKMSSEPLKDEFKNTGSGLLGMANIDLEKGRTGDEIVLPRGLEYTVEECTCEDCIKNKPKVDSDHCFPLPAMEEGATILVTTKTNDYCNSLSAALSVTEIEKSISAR
Description: as §1

human BCMA-Fc = target: T2, human BCMA-Fc; assay: SPR (Biacore), captured antibody

Row | Binder | Bmax (MFI) [1] [MFI] | ARP-1, SC239-conjugated 2° antibody cell killing, EC50 [2] [nM] | ARP-1, SC239-conjugated 2° antibody cell killing, Span [2] [%] | U266B1, SC239-conjugated 2° antibody cell killing, EC50 [2] [nM] | U266B1, SC239-conjugated 2° antibody cell killing, Span [2] [%] | Bmax (MFI) [3] [MFI] | Bmax (MFI) [4] [MFI] | binding result (human BCMA-Fc)
1 | 10E10 (antibody, V domains shown, chicken HybriFree-derived antibody; also called Antibody 46) VH: AVTLDESGGGLQTPGGGLSLVCKASGFTFSSYGMGWMRQAPGKGLEFVARINSGGSSYTDYGSAVKGRATISRDDGQSTVRLQLNNLRAEDTGIYYCTRGGGGASIDGWGHGTEVIVSS VL: ALTQPSSVSANPGETVKITCSGGGNYAGSYYYGWYQQKSPGSAPLTVIYNSNNRPSDIPSRFSGSLSGSTGTLTITGVRAEDEAVYFCGGFDSSTDAIFGAGTTLTVL | 3440 | 3 | 46 | 2.5 | 20 | 906 | 4540 | –
2 | 10F4 (antibody, V domains shown, chicken HybriFree-derived antibody; also called Antibody 37) VH: AVTLDESGGGLQTPGGALSLVCKASGFTFSGYNMGWVRQAPGKGLEYVAGITYGTGSYTAYGAAVKGRATISRDNGQSTLRLQLNNLRAEDTATYYCARGGGLNSYGCSGANIDAWGHGTEVIVSS VL: ALTQPSSVSANLGGTVKITCSGGGNYFGSYYYGWYQQKAPGSAPVTVIYNNNNRPSDIPSRFSGSTSGSTSTLTISGVRAEDEAVYFCGGFDSSTDAIFGAGTTLTVL | 18700 | 1 | 87 | 0.36 | 81 | 410 | 12800 | no binding (tested: antigen 1-100 nM)
3 | 9A5 (antibody, V domains shown, chicken HybriFree-derived antibody; also called Antibody 42) VH: AVTLDESGGGLQTPGGAVSLVCKASGFSISDYGMGWMRQAPGKGLQYVARIDHDGRYTDYGAVVKGRATISRDNGQSTVRLQLNNLRAEDTGTYYCTRGGGAASIDTWGHGTEVIVSS VL: ALTQPSSVSANPGETVKITCSGGGNYVGGYYYGWYQQKAPGSALVTLIYNNNNRPSNIPSRFSGSTSGSTSTLTITGVRAEDEAVYFCGSFDSSTDAIFGAGTTLTVL | 19700 | 0.7 | 93 | 0.29 | 84 | 2780 | 18200 | –

Source: US20240368295A1 (SUTRO BIOPHARMA, published 2024)
